Patent US20110190385A1 (UNIVERSITY OF CENTRAL FLORIDA RESEARCH FOUNDATION, published 2011)

Target: HIV-1 gp41 (Env of HIV-1 BaL) (HIV-1 BaL)
Assay: cell-based or functional assay

B1: RC-101 (single lysine congener of retrocyclin) (peptide)
peptide: cyclo(RCICGRGICRCICGKGIC)
modifications: disulfide (positions not given here); also: three disulfide bridges, pairing not given here
IC50 of inhibition of HIV-1 BaL entry in TZM-bl cells (luciferase): 2 µg/mL
